The values below come from the nanobody polyreactivity screen of Harvey et al. (2022).

This data set can be described thus: yeast display, Sf9 membrane polyspecificity reagent, FACS + sequencing; frameworks hold sequencing errors. The gist of the method:
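In a synthetic yeast display library (Saccharomyces cerevisiae BJ5465), nanobody expression was induced with galactose for 36–48 hours. FACS gates were set low and high (top ~1%) using anti-HA fluorescence for expression and streptavidin fluorescence for binding of the Sf9 membrane reagent. Each polyreactivity label is drawn from the gate of origin.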
For the sequence “QVQLVESGGGLVQAGGSLRLSCAASGLTFYAYAMGWYRQAPGKERELVAAISSRGGRTYYADSVKGRFTISRDNAKNTVYLQMNRLKPEDTAVYYCAARIYRYDTTVVPRYDYWGQGTQVTVSS”, the “polyreactivity (PSR sort gate)” value is reported as “high polyreactivity”.
The same measure for “QVQLVESGGGLVQAGGSLRLSCAASGLTFYAYAMGWYRQAPGKERELVAHISWTGTTTYYADSVKGRFTISRDNAKNTVYLQMNSLKPEDTAVYYCAALIYRYAVAPPGYQYWLYYWGQGTLVTVSS”: “low polyreactivity”; for “QVQLVESGGGLVQAGGSLRLSCAASGLTFYDYAMGWYRQAPGKERELVADIDFNGGSTSYADSVKGRFTISRDNAKNTVYLQMNSLKREDTAVYYCNTRDRGDVVTGLDYWGQGTQVTVSS”: “low polyreactivity”; for “QVQLVESGGGLVQAGGSLRLSCAASGLTFYGNAMGWYRQAPGKERELVAAITSNGGSTYYADSVKGRFTISRDNAKNTVYLQMISLKPEDTAVYYCNVDTGYDYWYPGYGYWGQGTQVTVSS”: “low polyreactivity”.
To “QVQLVESGGGLVQAGGSLRLSCAASGLTFYGYAMGWYRQAPGKERELVAAIRWSGGRTYYADSVKGRFTISRDNAKNTVYLQMNSLKPEDTAVYYCAADYRRYYGGDYWGQGTQVTVSS” belongs “low polyreactivity”.
Regarding “QVQLVESGGGLVQAGGSLRLSCAASGLTFYINDMGWYRQAPGKERELVAAITRGGSTNYADSVKGRLTISRDNAKNTVYLQMNSLKPEDTAVYYCAAGARYGYGYWGHGTQVTVSS”, the “polyreactivity (PSR sort gate)” value is given as “high polyreactivity”.
“QVQLVESGGGLVQAGGSLRLSCAASGLTFYKNAMGWYRQAPGKVRELVAVISSSGGSTYYADSVKGRFTISRDKAKNTVYLQMNSLKPEDTAVYYCARDLYTEYRWGRLTYDYWGQGTQVTVSS”: the “polyreactivity (PSR sort gate)” value is “low polyreactivity”.
With “QVQLVESGGGLVQAGGSLRLSCAASGLTFYLYAMGWYRQAPGKERELVAAISRSGGSTYYADSVKGRFTISRDNAKNTVYVQMYSLKPEDTAVYYCAAVTYYPEIRKYYDWRQGTQVTVSS”, the “polyreactivity (PSR sort gate)” value was “high polyreactivity”.
To “QVQLVESGGGLVQAGGSLRLSCAASGLTFYNNAMGWYRQAPGKERELVARISSGGSTYYADSVKGRFTISRDNAKNTVYLQMNSLKPEDTAVYYCAAGRGYWWWYGYDYWGQGTQVTVSS” belongs “low polyreactivity”; to “QVQLVESGGGLVQAGGSLRLSCAASGLTFYPYTMGWYRQAPGKERELVAAISSGGSTYYADSVKGRFTISRDNAKNTVYLQMNSLKPEDTAVYYCAARYPYFSYGYWGQGTQVTVSS”, “high polyreactivity”; to “QVQLVESGGGLVQAGGSLRLSCAASGLTFYQYALGWSRQAPGNDREWVAAITRGGTTNYADSVKGRFTISRDNAKNTVYLQMNSLKPEDTAVYYCNKGLVFDGYDYWGQGTQVTVSS”, “high polyreactivity”.
The same measure for “QVQLVESGGGLVQAGGSLRLSCAASGLTFYQYAMGWYRQAPGKERELVAAISQSAGSTYYADSVKGRFTISRDNAKNTVYLQMNSLKPEDTAVYYCAARVLRLRYDYWGQGTQVTVSS”: “high polyreactivity”; for “QVQLVESGGGLVQAGGSLRLSCAASGLTFYRNVMGWYRQAPGKERELVAVITSGGRTNYADSVKGRFTISRDNAKNTVYLQMNSLKPEDTAVYYCNTALSSRSNKMYYWGQGTQVTVSS”: “high polyreactivity”.
To “QVQLVESGGGLVQAGGSLRLSCAASGLTFYRYTMGWYRQAPGKERELVAAIRSSGGRTYYADSVKGRFTISRDNAKNTVYLQKNSLKPEDTAVYYCNAVRYNSVGYVYWGQGTQVTVSS” belongs “high polyreactivity”; to “QVQLVESGGGLVQAGGSLRLSCAASGLTFYSNAMRWYRQAPGKEREVVARISTGGSTYADSVKGRFTISRDNAKKTVYLQMNSLKPQDTEVYYCAKLPPRGIDDEYWGQGTQVTVSS”, “low polyreactivity”.
As for “QVQLVESGGGLVQAGGSLRLSCAASGLTFYSYAMGWYRQAPGKERELVAAISKSGGSTYYADSVKGRFTISRDNAKNSVYLQMNSLKPEDTAVYYCNALTKTGTPPDYDYWGQGTQVTVSS”, the “polyreactivity (PSR sort gate)” value is “high polyreactivity”.
